One data set has as its target T1, H4-12(K5X/K12A) peptide.
T1 chain: RGXGGKGLGAGA

Data set [1] concerns the target T2, H4-15 histone H4 tail peptide.
T2 chain: GRGKGGKGLGKGGAK

The next data set addresses T3, H4-15(K5D/K12D) peptide.
T3 chain: GRGDGGKGLGDGGAK

The target of the next data set is T4, H4-12(K5A/K12A) peptide.
T4 chain: RGAGGKGLGAGA

The values below come from US20100216853.

Numbering of substitutions follows the chain as printed. Names and notes keep the numbering of the source.

B1: semi-synthetic p300 HAT domain D1625R/D1628R double mutant (protein)
chain: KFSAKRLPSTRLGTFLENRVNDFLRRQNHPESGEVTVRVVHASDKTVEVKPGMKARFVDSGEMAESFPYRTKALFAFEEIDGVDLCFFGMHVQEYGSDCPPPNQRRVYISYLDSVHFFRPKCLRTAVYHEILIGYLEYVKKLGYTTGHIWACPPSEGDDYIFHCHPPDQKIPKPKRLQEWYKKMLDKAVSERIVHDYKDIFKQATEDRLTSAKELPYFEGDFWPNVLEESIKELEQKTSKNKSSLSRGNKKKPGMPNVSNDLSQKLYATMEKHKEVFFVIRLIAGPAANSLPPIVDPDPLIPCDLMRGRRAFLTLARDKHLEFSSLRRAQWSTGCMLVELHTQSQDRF
As for B1, in the data set with H4-12(K5X/K12A) peptide, the V/K(M^-1s^-1) for D1625R/D1628R was 738 M⁻¹ s⁻¹ and the “loss in V/K against wild-type” value is on record as “the loss of 6-fold in V/K for neutral H4 substrates”. Besides, in data set [1], the “Km(µM) for H4-15” value is reported as more than 1000; the V/K worked out at 1160 M⁻¹ s⁻¹; the “V/K difference against wild-type” value is “the 22-fold V/K difference between wild-type p300 HAT protein and the D1625R/D1628R mutant for H4-15 substrate”; the “V/K drop against wild-type” value was “a 20-fold drop in V/K”. The V/K(M^-1s^-1) for D1625R/D1628R in data set [1] stood at 1160 M⁻¹ s⁻¹. In the data set with H4-15(K5D/K12D) peptide, the V/K(M^-1s^-1) for D1625R/D1628R worked out at 422 M⁻¹ s⁻¹ and the “acetyltransferase activity against wild-type” value is “almost equal (within 2-fold) acetyltransferase activity”. In the data set with H4-12(K5A/K12A) peptide, the V/K(M^-1s^-1) for D1625R/D1628R worked out at 515 M⁻¹ s⁻¹ and the “loss in V/K against wild-type” value was “the loss of 6-fold in V/K for neutral H4 substrates”.

B2: semi-synthetic p300 HAT domain, wild-type (protein)
chain: B1 chain with R307D, R310D
For the protein B2, the Km result in the data set with H4-12(K5X/K12A) peptide, with H4-15(K5D/K12D) peptide and with H4-12(K5A/K12A) peptide was “Km of these substrates were generally too high to be measured (>1000 µM)” in each case. The V/K(M^-1s^-1) for W.T. was 5250 M⁻¹ s⁻¹ in the data set with H4-12(K5X/K12A) peptide, 25000 M⁻¹ s⁻¹ in data set [1], 636 M⁻¹ s⁻¹ in the data set with H4-15(K5D/K12D) peptide and 3820 M⁻¹ s⁻¹ in the data set with H4-12(K5A/K12A) peptide. Besides, the Km(µM) for H4-15 in data set [1] was 164 µM. This protein showed a V/K in data set [1] of 25000 ± 1640 M⁻¹ s⁻¹.
